# Assays:
# [1] = Retention of perhydrolase on hydroxyapatite (SDS-PAGE band strength); type: binding; settings: relative to enzyme input = 1; for Unbound (relative band strength): 10 μM enzyme, 0.5% hydroxyapatite, pH 7.2; for HAP Particles (relative band strength): enzyme retained on particles after washes
# Protocol: Perhydrolase enzymes listed in Table 6 were assessed for binding to hydroxyapatite. A dispersion of hydroxyapatite nanoparticles (Aldrich 677418) was made at 0.5% solids in 10 mM phosphate buffer at pH 7.2. Enzyme stock solution was added to the hydroxyapatite dispersion to a final concentration of 10 μM and incubated for 30 min in a microcentrifuge tube with gentle agitation. Each sample was centrifuged for 5 min at 10000 rpm. The supernatant was removed and additional buffer was added. The particles were resuspended and transferred to a new tube. The process was repeated two additional times. Samples of the original input of enzyme, the supernatant removed from the particles with each wash step and the final particles were prepared for SDS-PAGE analysis by combining 60 μL of sample, 20 μL of LDS buffer and 8 μL of reducing agent (Nu-PAGE). Samples were heated at 85° C. for 10 min. 25 μL of each sample was loaded on a 4-12% BisTris gel (Invitrogen) and run at 115 volts for 1.5 h. The gel was removed and stained with a 1:1 dilution of Simply Blue stain (Invitrogen) overnight and destained for 4 h in deionized water. The gel was analyzed and detection of enzyme in each fraction was estimated based on the presence of a band. The results of the analysis are provided in Table 7 with an indication of the relative strength of each band in the gel compared to the enzyme input (input=1) to determine the strength of binding between the hydroxyapatite surface and each enzyme.
# [2] = Perhydrolase activity in solution, ABTS detection of peracetic acid (Example 7); type: biochemical; settings: 10 μL of 0.625 μg/mL enzyme, triacetin, H2O2, pH 7.2, 5 min
# Protocol: (§1) The detection of peracetic acid followed the method described in Pinkernell et. al. (Analyst, 1997, 122, 567) using colorimetric detection of 2,2′-azino-bis(3-ethylbenzothiazoline(-6-sulfonate (ABTS) oxidation by peracetic acid. Following the formation of peracetic acid with the addition of triacetin and hydrogen peroxide, 90 μL of solution was added to 10 μL of 0.1 M H3PO4 in a well plate. 50 μL of 1 M acetic acid, 50 μL of 0.5 g/L ABTS and 50 μL of 0.002 g/L of KI was added. The solution was allowed to develop for 5 min. The absorbance of the solution was measured at 405 nm using a microplate reader. The peracetic acid concentration was calculated based on a standard curve developed simultaneously using peracetic acid reagent solution.
# The enzyme activity in solution was measured by making a solution of 0.625 μg/mL of each enzyme in 50 mM phosphate buffer, pH 7.2. 10 μL of enzyme solution was mixed with 90 μL buffer, 30 μL of 3% triacetin in water, 30 μL of 30 mM H2O2. The solution was incubated for 5 min. A 90 μL aliquot was removed for detection via ABTS oxidation as noted above.
# [3] = Perhydrolase activity of enzyme bound to hydroxyapatite discs, ABTS (Example 7); type: biochemical
# Protocol: as §1
# The perhydrolase activity of the fusions once bound to HAP discs surfaces was determined with the same ABTS method. Hydroxyapatite discs (HiMed Inc, Old Bethpage, N.Y.; 5 mm dia.×1.8 mm thick) were incubated in 20 μM enzyme solution (50 mM potassium phosphate buffer pH 7.2) for 60 min followed by 6 times of washes (50 mM potassium phosphate buffer pH 7.2). The discs with enzyme adsorbed were transferred to new wells and 200 μL of phosphate buffer (10 mM pH 7.2), 30 μL of 3% triacetin (final concentration of 0.346%) and 30 μL of 30 mM H2O2 (final concentration of 3.46 mM) were added. The solution was allowed to incubate at room temperature for 5 min. 90 μL of solution was pipetted to a new well containing 10 μL of 100 mM H3PO4. 50 μL of acetic acid, 50 μL KI, 50 μL ABTS were added as described above. The solution was developed for 5 min at room temperature and read at A405 nm.
# [4] = T. maritima C277S/C277T constructs, peracetic acid in solution (Example 11); type: biochemical; settings: 0.5 μM enzyme, 100 mM triacetin, 100 mM H2O2, pH 7.2, 10 min, 37° C.; no enzyme 114
# Protocol: as §1
# Perhydrolase enzymes listed in Table 5 were assessed for enzyme activity in solution as described in Example 7. The enzyme activity in solution was measured by making a 500 μl solution of 0.5 μM of each enzyme in 100 mM triacetin, 100 mM H2O2 and 10 mM phosphate buffer, pH 7.2. The solution was incubated for 10 min, at 37° C. After the reaction was stopped by mixing an aliquot with H3PO4, a 10 μL aliquot was removed for proper dilution, and then detected via ABTS oxidation as described in Example 7.
# [5] = T. maritima C277S/C277T constructs, peracetic acid when bound to bovine enamel (Example 11); type: biochemical; settings: bovine enamel exposed to 10 μM enzyme, 4 washes; 100 mM triacetin, 100 mM H2O2, 30 min, 37° C.; no enzyme 570
# Protocol: as §1
# The perhydrolase enzymes were also assessed for binding to bovine enamel substrates. Enamel substrates were prepared as described in Example 2 and 3. Each enamel block was hydrated in water for overnight at room temperature (˜22° C.). The enamel blocks were then equilibrated with 10 mM potassium phosphate buffer, pH7.2, for 10 min. The enamel substrates were rinsed 3 times the buffer. The enamel wells were filled with 500 μL of 10 μM enzyme solutions which was prepared by diluting in 10 mM phosphate buffer. The samples were incubated for 30 min with slow shaking at 37° C. The non-binding enzyme was removed by washing 4 times with phosphate buffer. Then, each enamel block was embedded inside a putty filled 24-well plate, with only the enamel top surface exposed. The perhydrolase activity from enamel bound enzyme was measured as described in Example 8. 100 μL reaction mixtures (100 mM phosphate buffer, pH7.2 and 100 mM H2O2 and 100 mM triacetin) was added on top of the enamel and incubated for 30 min at 37° C. A 90 μL aliquot was removed for detection via ABTS oxidation as noted in Example 8. Each sample data point represents an average of 3 independent enamel blocks.
# [6] = Two-step bleaching of coffee-tea stained bovine enamel (Example 16); settings: for Whiteness Index 0 min: two-step: 10 μM enzyme 60 min, rinsed, then 40 mM triacetin, 100 mM H2O2, pH 7.2, before step 2; for ΔWI / Whiteness Index 5 min / Whiteness Index 15 min / Whiteness Index 30 min / Whiteness Index 45 min / Whiteness Index 60 min: two-step; for ΔWI: 0 to 60 min; for Whiteness Index 5 min: 5 min in triacetin/H2O2; for Whiteness Index 15 min: 15 min in triacetin/H2O2; for Whiteness Index 30 min: 30 min in triacetin/H2O2; for Whiteness Index 45 min: 45 min in triacetin/H2O2; for Whiteness Index 60 min: 60 min in triacetin/H2O2
# Protocol: Bovine enamel incisors were prepared as indicated in Example 1. The stained enamel blocks were embedded in a 48 well plate to protect the dentin backside from solution exposure. A solution of 10 μM of each enzyme in 10 mM phosphate buffer, pH 7.2 was prepared and 500 μL of solution was incubated with each enamel substrate for 60 min. The enzyme solution was removed and each well was rinsed three times with an additional 500 μL of buffer. The enamel blocks were placed in a fresh well for the whitening process. A solution with a final concentration of 40 mM triacetin, 100 mM H2O2 in 50 mM phosphate pH 7.2 buffer was freshly prepared and 500 μL of solution was added to each enamel block. Over the course of 1 hr the enamel blocks were removed and a color measurement was obtained and then each was returned to the solution in the well plate. The whiteness index for each sample was monitored.
# [7] = Peracetic acid generation from hydroxyapatite bound CE-7 perhydrolase fusions (Example 8); type: biochemical; settings: hydroxyapatite particles exposed to 10 μM enzyme, washed; 100 mM triacetin, 100 mM H2O2, 30 min, 37° C.; no enzyme 30-118.8
# Protocol: as §1
# To assess binding of these constructs to hydroxyapatite, 33 mg of hydroxyapatite particles (Macro-prep Ceramic Hydroxyapatite TYPE I, 80 μm size BioRad, Hercules, Calif.), were washed with 10 mM phosphate buffer at pH 7.2. After removing the supernatant, enzyme stock solution was added to the hydroxyapatite dispersion to a final concentration of 10 μM and incubated for 30 min in a microcentrifuge tube with gentle agitation. Each sample was centrifuged for 1 min at 10000 rpm. The supernatant was removed and additional buffer was added. The particles were resuspended and transferred to a new tube. The process was repeated two additional times. The hydroxyapatite bound enzyme activity was measured by adding a 500 μl solution containing 100 mM triacetin, 100 mM H2O2 in 100 mM phosphate buffer, pH 7.2. The solution was incubated for 30 min, at 37° C. An aliquot was removed and mixed with H3PO4 and properly diluted for detection via ABTS oxidation as described in Example 7. The experiments were performed at different day with no enzyme as control for each experiment.
molecule,measurement,setting,value
"EZ-5: C277S-link1-(GK)5-H6, SEQ ID NO: 428 (protein) MAFFDLPLEELKKYRPERYEEKDFDEFWEETLAESEKFPLDPVFERMESHLKTVEAYDVTFSGYRGQRIKGWLLVPKLEEEKLPCVVQYIGYNGGRGFPHDWLFWPSMGYICFVMDTRGQGSGWLKGDTPDYPEGPVDPQYPGFMTRGILDPRTYYYRRVFTDAVRAVEAAASFPQVDQERIVIAGGSQGGGIALAVSALSKKAKALLCDVPFLCHFRRAVQLVDTHPYAEITNFLKTHRDKEEIVFRTLSYFDGVNFAARAKIPALFSVGLMDNISPPSTVFAAYNYYAGPKEIRIYPYNNHEGGGSFQAVEQVKFLKKLFEKGGPGSGGAGSPGSAGGPGSGKGKGKGKGKHHHHHH",Unbound (relative band strength),[1],0.2
same,HAP Particles (relative band strength),[1],0.7
same,Wash1 (relative band strength),[1],0.05
same,Wash2 (relative band strength),[1],0.05
same,Avg Absorbance 405 nm Background subtracted,[2],1.658
same,Avg Absorbance Background subtract,"[3]; background = no enzyme, no HAP (0.775)",1.379
same,Avg Absorbance at 5 min,"[3]; discs incubated in 20 μM enzyme, 6 washes, 0.346% triacetin, 3.46 mM H2O2, A405",2.154
same,PAA conc μM per disc,"[3]; enzyme bound to hydroxyapatite disc, 5 min, no enzyme control 1.2",49.7 μM per disc
same,activity when bound to hydroxyapatite (in words),[3]; with addition of triacetin and hydrogen peroxide,active enzymes when bound to hydroxyapatite
same,Peracetic acid (ppm) In Solution,[4],3956 ppm
same,Peracetic acid (ppm) On Enamel,[5],1344 ppm
same,Whiteness Index 0 min,[6],−135.8
same,ΔWI,[6],93.2
same,Whiteness Index 5 min,[6],−129.8
same,Whiteness Index 15 min,[6],−97.4
same,Whiteness Index 30 min,[6],−65.1
same,Whiteness Index 45 min,[6],−49.9
same,Whiteness Index 60 min,[6],−42.7
"EZ-3: C277S-link2-H6, SEQ ID NO: 426 (protein) MAFFDLPLEELKKYRPERYEEKDFDEFWEETLAESEKFPLDPVFERMESHLKTVEAYDVTFSGYRGQRIKGWLLVPKLEEEKLPCVVQYIGYNGGRGFPHDWLFWPSMGYICFVMDTRGQGSGWLKGDTPDYPEGPVDPQYPGFMTRGILDPRTYYYRRVFTDAVRAVEAAASFPQVDQERIVIAGGSQGGGIALAVSALSKKAKALLCDVPFLCHFRRAVQLVDTHPYAEITNFLKTHRDKEEIVFRTLSYFDGVNFAARAKIPALFSVGLMDNISPPSTVFAAYNYYAGPKEIRIYPYNNHEGGGSFQAVEQVKFLKKLFEKGGSHHHHHH",Unbound (relative band strength),[1],0.8
same,HAP Particles (relative band strength),[1],0.1
same,Wash1 (relative band strength),[1],0.05
same,Wash2 (relative band strength),[1],0.05
same,Avg Absorbance 405 nm Background subtracted,[2],1.751
same,Peracetic acid (ppm) In Solution,[4],5187 ppm
same,Peracetic acid (ppm) On Enamel,[5],733 ppm
same,Whiteness Index 0 min,[6],−159.0
same,ΔWI,[6],75.2
same,Whiteness Index 5 min,[6],−147.4
same,Whiteness Index 15 min,[6],−161.5
same,Whiteness Index 30 min,[6],−117.3
same,Whiteness Index 45 min,[6],−104.7
same,Whiteness Index 60 min,[6],−83.8
"EZ-2: C277S-link1-HC263-H6 fusion protein, SEQ ID NO: 425 (protein) MAFFDLPLEELKKYRPERYEEKDFDEFWEETLAESEKFPLDPVFERMESHLKTVEAYDVTFSGYRGQRIKGWLLVPKLEEEKLPCVVQYIGYNGGRGFPHDWLFWPSMGYICFVMDTRGQGSGWLKGDTPDYPEGPVDPQYPGFMTRGILDPRTYYYRRVFTDAVRAVEAAASFPQVDQERIVIAGGSQGGGIALAVSALSKKAKALLCDVPFLCHFRRAVQLVDTHPYAEITNFLKTHRDKEEIVFRTLSYFDGVNFAARAKIPALFSVGLMDNISPPSTVFAAYNYYAGPKEIRIYPYNNHEGGGSFQAVEQVKFLKKLFEKGGPGSGGAGSPGSAGGPGSPSAQSQLPDKHSGLHERAPQRYGPEPEPEPEPIPEPPKEAPVVIEKPKPKPKPKPKPPAHDHKNQKETHQRHAAGSGGGGSPHHHHHH",Unbound (relative band strength),[1],0.5
same,HAP Particles (relative band strength),[1],0.5
same,Wash1 (relative band strength),[1],0.0
same,Wash2 (relative band strength),[1],0.0
same,Avg Absorbance 405 nm Background subtracted,[2],1.577
same,Peracetic acid (ppm),[7],3666.4 ppm
same,Peracetic acid (ppm) In Solution,[4],4761 ppm
same,Peracetic acid (ppm) On Enamel,[5],2549 ppm
same,Whiteness Index 0 min,[6],−154.5
same,ΔWI,[6],129.1
same,Whiteness Index 5 min,[6],−134.6
same,Whiteness Index 15 min,[6],−97.3
same,Whiteness Index 30 min,[6],−57.2
same,Whiteness Index 45 min,[6],−35.8
same,Whiteness Index 60 min,[6],−25.3

# From patent US8663616B2, “Enzymatic peracid generation for use in oral care products” (E I du Pont de Nemours and Company, priority 2010, dated 2014)
